Data on 13 molecules can be found in patent US20250042957A1 (Molecular Partners, published 2025).

Test [1] deals with T1, scCD3εγ.
T1 chain 1: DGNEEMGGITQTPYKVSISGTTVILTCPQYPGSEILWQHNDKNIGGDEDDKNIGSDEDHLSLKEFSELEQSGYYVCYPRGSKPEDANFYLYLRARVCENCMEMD
T1 chain 2: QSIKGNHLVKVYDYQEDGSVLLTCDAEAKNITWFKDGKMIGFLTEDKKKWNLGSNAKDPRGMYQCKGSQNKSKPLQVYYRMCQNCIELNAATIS
As to the kind of experiment: ELISA on scCD3εγ, DARPin titrated.

Test [2] addresses T1, scCD3εγ. Description: SPR, bio-scCD3εγ coated on NAD chip, DARPin 333.33-4.11 nM. (In general: SPR reads the build-up and loss of mass on a sensor chip optically.)
Test [3] concerns the target T2, VEGF165 (UniProt P15692-4 27-191, biotinylated in the ELISA of Example 4 (site not stated)).
T2 construct: also called biotinylated VEGF165; soluble VEGF
As to the kind of experiment: SPR (ProteOn), VEGF165 immobilized, multi-trace 50-0.195 nM, 25 C.

Test [4] deals with T3, CD3-specific binding domain (SEQ ID NO: 3) (biotinylated when used as immobilized SPR ligand (site not stated)).
T3 construct: also called α-CD3 DARPin
T3 chain: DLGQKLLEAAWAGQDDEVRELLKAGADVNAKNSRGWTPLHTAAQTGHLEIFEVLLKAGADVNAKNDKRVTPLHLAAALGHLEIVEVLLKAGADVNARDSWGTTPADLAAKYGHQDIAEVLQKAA
Description: SPR; KD on CD3-specific binding domain (Ligand1) divided by KD on VEGF165 (Ligand2).

Test [5] addresses T3, CD3-specific binding domain (SEQ ID NO: …). As to the kind of experiment: SPR (ProteOn), biotinylated CD3-specific binding domain immobilized, multi-trace 50-0.195 nM, 25 C.
For test [6], the target named is T2, VEGF165. As to the kind of experiment: ELISA: plate-bound biotinylated VEGF165, His-tagged construct titrated, no soluble VEGF, anti-His-HRP detection. For orientation: An ELISA detects its analyte on a solid surface through an enzyme-linked reagent.
Description: Then a titration of the Switchdrug DARPins was applied, incubated and washed. Detection of bound his-tagged constructs was done by anti-RGS(his)4 mAb HRP conjugate, and detected by TMB substrate.

T2 sequence (P15692 other isoform, or with tags, fused parts or gaps limits assumed): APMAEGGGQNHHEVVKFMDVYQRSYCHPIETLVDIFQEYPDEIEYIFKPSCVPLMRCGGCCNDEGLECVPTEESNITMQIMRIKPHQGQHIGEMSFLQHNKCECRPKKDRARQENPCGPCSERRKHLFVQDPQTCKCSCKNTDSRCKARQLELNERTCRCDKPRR

B1: 2-in-1 DARPin 24 (SEQ ID NO: 93) (designed binder)
chain: DLGKKLLQAARAGQLDEVRELLKAGADVNAKDSQGRTPLHLAAFAGHLEIVEVLLKAGADVNAKDHAGWTPLHLAAYAGHLEIVEVLVKAGADVNAKDTEGKTPLHIAAWFGHLEIVEVLLKAGADVNAKDKSGKTPLHLAARAGHLEIVEVLLKAGADVNAKDNSGQTPLHEAAWAGHLEIVEVLLKAGADVNAKNSRGWTPLHTAAQTGHLEIFEVLLKAGADVNAKNDKRVTPLHLAAALGHLEIVEVLLKAGADVNARDSWGTTPADLAAKYGHQDIAEVLQKAA
notes: Family 2, from Parent nos 3 and 4; tag not specified
With B1, the “EC50 (read off the curve)” value in test [1] is roughly 10 nM. This molecule also had a Kd in test [2] of 4.67 nM.

B2: 2-in-1 DARPin 25 (SEQ ID NO: 94) (designed binder)
chain: DLGKKLLQAARAGQLDEVRELLKAGADVNAKDSQGRTPLHLAAFAGHLEIVEVLLKAGADVNAKDHAGWTPLHLAAYAGHLEIVEVLVKAGADVNAKDTEGKTPLHIAAWFGHLEIVEVLLKAGADVNAKDKSGKTPLHLAARAGHLEIVEVLLKAGADVNAKDNSGQTPLHLAAWAGHLEIVEVLLKAGADVNAKNSRGWTPLHTAAQTGHLEIFEVLLKAGADVNAKNDKRVTPLHLAAALGHLEIVEVLLKAGADVNARDSWGTTPADLAAKYGHQDIAEVLQKAA
notes: as for B1
As to B2, the “EC50 (read off the curve)” value in test [1] is roughly 10 nM. Moreover, in test [2], the dissociation constant Kd is 4.05 nM.

B3: 2-in-1 DARPin 23 (SEQ ID NO: 92) (designed binder)
chain: DLGKKLLQAARAGQLDEVRELLKAGADVNAKDSQGRTPLHLAAFAGHLEIVEVLLKAGADVNAKDHAGWTPLHLAAYAGHLEIVEVLVKAGADVNAKDTEGKTPLHIAAWFGHLEIVEVLLKAGADVNAKDKSGQTPLHLAAWAGHLEIVEVLLKAGADVNAKNSRGWTPLHTAAQTGHLEIFEVLLKAGADVNAKNDKRVTPLHLAAALGHLEIVEVLLKAGADVNARDSWGTTPADLAAKYGHQDIAEVLQKAA
notes: as for B1
B3: the “EC50 (read off the curve)” value in test [1] was roughly 30 nM. The molecule further gave a Kd in test [2] of 3.81 nM.

B4: 2-in-1 DARPin 20 (SEQ ID NO: 13) (designed binder)
chain: DLDKKLLEAARAGQDDEVRILLKAGADVNAKDSTGWTPLHLAAPWGHPEIVEVLLKAGADVNAKDFQGWTPLHLAAAAGHLEIVEVLLKAGADVNAKDVYGWTPLHLAAAAGHLEIVEVLLKAGADVNAKDWLGWTPLHLAASHGHLEIVEVLLKAGADVNAQDKSGKTPADLAARAGHQDIAEVLQKAA
notes: N4C mono-domain; purified by its His-tag
In test [3], B4 yielded a dissociation constant Kd of 0.69 nM and a kon of 1.29e+06 M⁻¹ s⁻¹. In test [4], the “KD ratio (Ligand1/Ligand2)” value came to 2.09. In addition, in test [5], the Kd amounted to 1.44 nM, the koff is 0.0005 s⁻¹ and the kon was determined as 350000 M⁻¹ s⁻¹.

B5: 2-in-1 DARPin 19 (SEQ ID NO: 12) (designed binder)
chain: DLDKKLLEAARAGQDDEVRILLKAGADVNAKDSTGWTPLHLAAPWGHPEIVEVLLKAGADVNAKDFKGWTPLHLAAAAGHLEIVEVLLKAGADVNAKDVYGWTPLHLAAAAGHLEIVEVLLKAGADVNAKDWLGWTPLHLAASHGHLEIVEVLLKAGADVNAQDKSGKTPADLAARAGHQDIAEVLQKAA
notes: as for B4
In the case of B5, in test [3], the Kd was 68.5 nM, the koff came out at 0.0949 s⁻¹ and the kon was found to be 1.38e+06 M⁻¹ s⁻¹. The “KD ratio (Ligand1/Ligand2)” value in test [4] is 0.00647. In test [5], this molecule yielded a Kd of 0.44 nM, a koff of 0.0002 s⁻¹ and a kon of 450000 M⁻¹ s⁻¹.

B6: 2-in-1 DARPin 18 (SEQ ID NO: 11) (designed binder)
chain: DLDKKLLEAARAGQDDEVRILLKAGADVNAKDSTGWTPLHLAAPWGHPEIVEVLLKAGADVNAKDFQGWTPLHLAAAAGHLEIVEVLLKAGADVNAKDVYGWTPLHIAAASGHLEIVEVLLKAGADVNAKDWLGWTPLHLAASHGHLEIVEVLLKAGADVNAQDKSGKTPADLAARAGHQDIAEVLQKAA
notes: as for B4
Turning to B6, in test [3], binding was put at a Kd of 0.1 nM, the koff came out at 0.00012 s⁻¹ and the kon worked out at 1.16e+06 M⁻¹ s⁻¹. The “KD ratio (Ligand1/Ligand2)” value in test [4] was 17. Also, in test [5], the Kd amounted to 1.7 nM, the koff was determined as 0.00087 s⁻¹ and the kon worked out at 514000 M⁻¹ s⁻¹.

B7: Switchdrug DARPin 15-A (designed binder)
chain: MRGSHHHHHHGSDLGKKLLQAARAGQLDEVRELLKAGADVNAKDQYGRTPLHLAAIKGHLEIVEVLLKAGADVNAKDSLGYTPLHLAAVEGPLEIVEVLLKAGADVNAKDAYGQTPLHIAAAWGHLEIVEVLLKAVADVNAQDKSGKTPADLAARAGHQDIAEVLQKAAGSPTPTPTTPTPTPTTPTPTPTGSDLGQKLLEAAWAGQDDEVRELLKAGADVNAKNSRGWTPLHTAAQTGHLEIFEVLLKAGADVNAKNDKRVTPLHLAAALGHLEIVEVLLKAGADVNARDSWGTTPADLAAKYGHQDIAEVLQKAAGSPTPTPTTPTPTPTTPTPTPTGSDLDKKLLEAARAGQDDEVRILLKAGADVNAKDSTGWTPLHLAAPWGHPEIVEVLLKAGADVNAKDFQGWTPLHLAAAAGHLEIVEVLLKAGADVNAKDWLGWTPLHLAASHGHLEIVEVLLKAGADVNAQDKSGKTPADLAARAGHQDIAEVLQKAA
notes: also called 2-in-1 DARPin15 in Format A
For B7, the “EC50 (read off the curve)” value in test [6] is roughly 20 nM.

B8: Switchdrug DARPin 15-B (designed binder)
chain: MRGSHHHHHHGSDLDKKLLEAARAGQDDEVRILLKAGADVNAKDSTGWTPLHLAAPWGHPEIVEVLLKAGADVNAKDFQGWTPLHLAAAAGHLEIVEVLLKAGADVNAKDWLGWTPLHLAASHGHLEIVEVLLKAGADVNAQDKSGKTPADLAARAGHQDIAEVLQKAAGSPTPTPTTPTPTPTTPTPTPTGSDLGKKLLQAARAGQLDEVRELLKAGADVNAKDQYGRTPLHLAAIKGHLEIVEVLLKAGADVNAKDSLGYTPLHLAAVEGPLEIVEVLLKAGADVNAKDAYGQTPLHIAAAWGHLEIVEVLLKAVADVNAQDKSGKTPADLAARAGHQDIAEVLQKAAGSPTPTPTTPTPTPTTPTPTPTGSDLGQKLLEAAWAGQDDEVRELLKAGADVNAKNSRGWTPLHTAAQTGHLEIFEVLLKAGADVNAKNDKRVTPLHLAAALGHLEIVEVLLKAGADVNARDSWGTTPADLAAKYGHQDIAEVLQKAA
notes: also called 2-in-1 DARPin15 in Format B
Consider B8, for which the “EC50 (read off the curve)” value in test [6] is roughly 10 nM.

B9: 2-in-1 DARPin 12 (SEQ ID NO: 7) (designed binder)
chain: DLDKKLLEAARAGQDDEVRILLKAGADVNAKDSTGWTPLHLAAPWGHPEIVEVLLKAGADVNAKDVYGWTPLHLAAAAGHLEIVEVLLKAGADVNAKDWLGWTPLHLAASHGHLEIVEVLLKAGADVNAQDKSGKTPADLAARAGHQDIAEVLQKAA
notes: N3C mono-domain; purified by its His-tag
In the case of B9, in test [3], binding was characterised by a dissociation constant (Kd) of 6.66 nM, the koff was 0.0106 s⁻¹ and the kon came to 1.59e+06 M⁻¹ s⁻¹. Also, the “KD ratio (Ligand1/Ligand2)” value in test [4] was determined as 0.195. Further, in test [5], the Kd came to 1.3 nM, the koff is 0.00081 s⁻¹ and the kon worked out at 624000 M⁻¹ s⁻¹.

B10: 2-in-1 DARPin 15 (SEQ ID NO: 9) (designed binder)
chain: DLDKKLLEAARAGQDDEVRILLKAGADVNAKDSTGWTPLHLAAPWGHPEIVEVLLKAGADVNAKDFQGWTPLHLAAAAGHLEIVEVLLKAGADVNAKDWLGWTPLHLAASHGHLEIVEVLLKAGADVNAQDKSGKTPADLAARAGHQDIAEVLQKAA
notes: as for B9
For the molecule B10, in test [3], the affinity, expressed as Kd, was 0.02 nM; the koff turned out to be 0.0001 s⁻¹; the kon turned out to be 4.11e+06 M⁻¹ s⁻¹. For the same molecule, in test [4], the “KD ratio (Ligand1/Ligand2)” value was 59100. Also, in test [5], binding was characterised by a dissociation constant (Kd) of 1360 nM, the koff was 0.205 s⁻¹ and the kon was found to be 151000 M⁻¹ s⁻¹.

B11: 2-in-1 DARPin 13 (SEQ ID NO: 8) (designed binder)
chain: DLDKKLLEAARAGQDDEVRILLKAGADVNAKDSTGWTPLHLAAPWGHPEIVEVLLKAGADVNAKDFYGWTPLHLAAAAGHLEIVEVLLKAGADVNAKDWLGWTPLHLAASHGHLEIVEVLLKAGADVNAQDKSGKTPADLAARAGHQDIAEVLQKAA
notes: as for B9
In test [3], B11 returned a Kd of 0.81 nM, a koff of 0.00268 s⁻¹ and a kon of 3.29e+06 M⁻¹ s⁻¹. Further, the “KD ratio (Ligand1/Ligand2)” value in test [4] was 14.2. In test [5], the Kd worked out at 11.5 nM, the off-rate (koff) was determined as 0.008 s⁻¹ and the kon was found to be 693000 M⁻¹ s⁻¹.

B12: 2-in-1 DARPin 17 (SEQ ID NO: 10) (designed binder)
chain: DLGKKLLQAARAGQLDEVRELLKAGADVNAKDSTGWTPLHLAAPWGHPEIVEVLLKAGADVNAKDFQGWTPLHLAAAAGHLEIVEVLLKAGADVNAKDWLGWTPLHLAASHGHLEIVEVLLKAGADVNAQDKSGKTPADLAARAGHQDIAEVLQKAA
notes: as for B9
In test [3], B12 showed a Kd of 0.18 nM, an off-rate (koff) of 0.00085 s⁻¹ and a kon of 4.63e+06 M⁻¹ s⁻¹. Besides, the “KD ratio (Ligand1/Ligand2)” value in test [4] came to 2180. The Kd in test [5] was determined as 392 nM.

B13: 2-in-1 DARPin 11 (SEQ ID NO: 6) (designed binder)
chain: DLDKKLLEAARAGQDDEVRILLKAGADVNAKDSTGWTPLHLAAPWGHPEIVEVLLKAGADVNAKDVYGWTPLHIAAASGHLEIVEVLLKAGADVNAKDWLGWTPLHLAASHGHLEIVEVLLKAGADVNAQDKSGKTPADLAARAGHQDIAEVLQKAA
notes: as for B9
As to B13, in test [3], the Kd was 11.1 nM, the koff came to 0.0153 s⁻¹ and the kon was found to be 1.38e+06 M⁻¹ s⁻¹. Moreover, in test [4], the “KD ratio (Ligand1/Ligand2)” value came out at 0.0865. Further, in test [5], the Kd worked out at 0.96 nM, the koff is 0.00067 s⁻¹ and the kon came out at 691000 M⁻¹ s⁻¹.

By EC50 (read off the curve) is commonly meant the concentration that produces a half-maximal response. Low readings indicate higher potency in that assay, high ones lower potency in that assay. For orientation: Kd means the constant that tells how readily two partners part at equilibrium. Read a high Kd as a looser complex. Broadly, the kon is the second-order rate constant of association. A lower kon goes with slower complex formation. In general, koff refers to the first-order rate constant of dissociation.
